Measured values taken from patent US20240270821A1, “GIP/GLP1/GCG TRI-RECEPTOR AGONISTS AND USES THEREOF” (priority 2023, published 2024).
Positions count from the first letter of the chain named.

B1: Example 663 (peptide)
chain: YXQGTXTSDXSILLDKKAQXAFIEYLXEGGPSSGAPPPSGTGE
modifications: synthetic construct; SITE 2: note = 2-Aminoisobutyric Acid; SITE 6: note = alpha-methyl-2-fluoro-L-phenylalanine; SITE 10: note = 3-(4-Pyridyl)-L-alanine; SITE 17: note = Lysine is chemically modified through conjugation of the epsilon-amino group of the Lysine side chain with (2-[2-(2-Amino-ethoxy))
B2: Example 669 (peptide)
chain: B1 chain with Y25X, X27E
modifications: synthetic construct; SITE 2: note = 2-Aminoisobutyric Acid; SITE 6: note = alpha-methyl-2-fluoro-L-phenylalanine; SITE 10: note = 3-(4-Pyridyl)-L-alanine; SITE 17: note = Lysine is chemically modified through conjugation of the epsilon-amino group of the Lysine side chain with (2-[2-(2-Amino-ethoxy))
B3: Example 661 (peptide)
chain: B1 chain
modifications: synthetic construct; SITE 2: note = 2-Aminoisobutyric Acid; SITE 6: note = alpha-methyl-2-fluoro-L-phenylalanine; SITE 10: note = 3-(4-Pyridyl)-L-alanine; SITE 17: note = Lysine is chemically modified through conjugation of the epsilon-amino group of the Lysine side chain with (gamma-Glu)2-CO-(CH2)1
B4: Example 662 (peptide)
chain: B1 chain with X27E
modifications: synthetic construct; SITE 2: note = 2-Aminoisobutyric Acid; SITE 6: note = alpha-methyl-2-fluoro-L-phenylalanine; SITE 10: note = 3-(4-Pyridyl)-L-alanine; SITE 17: note = Lysine is chemically modified through conjugation of the epsilon-amino group of the Lysine side chain with (2-[2-(2-Amino-ethoxy))
B5: Example 61 (peptide)
chain: YXQGTFTSDFSXXLDKKAQXAFIEYLLEXGPSSGAPPPSEG
modifications: synthetic construct; SITE 2: note = 2-Aminoisobutyric Acid; SITE 12: note = L-ornithine; SITE 13: note = alpha-methyl-leucine; SITE 17: note = Lysine is chemically modified through conjugation of the epsilon-amino group of the Lysine side chain with (2-[2-(2-Amino-ethoxy)-ethoxy]-acetyl)-(gamma-Glu)
B6: Example 63 (peptide)
chain: B5 chain with X29G, S39G, E40G, G41E
modifications: synthetic construct; SITE 2: note = 2-Aminoisobutyric Acid; SITE 12: note = L-ornithine; SITE 13: note = alpha-methyl-leucine; SITE 17: note = Lysine is chemically modified through conjugation of the epsilon-amino group of the Lysine side chain with (2-[2-(2-Amino-ethoxy)-ethoxy]-acetyl)-(gamma-Glu)
B7: Example 659 (peptide)
chain: YXQGTXTSDXSILLDKKAQXAFIEYLEEGGPSSGAPPPEGTE
modifications: synthetic construct; SITE 2: note = 2-Aminoisobutyric Acid; SITE 6: note = alpha-methyl-2-fluoro-L-phenylalanine; SITE 10: note = 3-(4-Pyridyl)-L-alanine; SITE 17: note = Lysine is chemically modified through conjugation of the epsilon-amino group of the Lysine side chain with (gamma-Glu)2-CO-(CH2)1
B8: Example 639 (peptide)
chain: YXQGTXTSDXSIXLDKKAQXXFIEYLQEGGPSSGEPPPSGSEE
modifications: non-natural residues; K acylated (γGlu)2-C18 diacid; C-amide; synthetic construct; SITE 2: note = 2-Aminoisobutyric Acid; SITE 6: note = alpha-methyl-2-fluoro-L-phenylalanine; SITE 10: note = 3-(4-Pyridyl)-L-alanine; SITE 13: note = alpha-methyl-leucine; SITE 17: note = Lysine is chemically modified through conjugation of the epsilon-amino group of the Lysine
B9: Example 653 (peptide)
chain: B8 chain with S39E
modifications: synthetic construct; SITE 2: note = 2-Aminoisobutyric Acid; SITE 6: note = alpha-methyl-2-fluoro-L-phenylalanine; SITE 10: note = 3-(4-Pyridyl)-L-alanine; SITE 13: note = alpha-methyl-leucine; SITE 17: note = Lysine is chemically modified through conjugation of the epsilon-amino group of the Lysine
B10: Example 651 (peptide)
chain: B8 chain with Q27S, S39E
modifications: synthetic construct; SITE 2: note = 2-Aminoisobutyric Acid; SITE 6: note = alpha-methyl-2-fluoro-L-phenylalanine; SITE 10: note = 3-(4-Pyridyl)-L-alanine; SITE 13: note = alpha-methyl-leucine; SITE 17: note = Lysine is chemically modified through conjugation of the epsilon-amino group of the Lysine
B11: Example 650 (peptide)
chain: B8 chain with Q27A, S39E
modifications: synthetic construct; SITE 2: note = 2-Aminoisobutyric Acid; SITE 6: note = alpha-methyl-2-fluoro-L-phenylalanine; SITE 10: note = 3-(4-Pyridyl)-L-alanine; SITE 13: note = alpha-methyl-leucine; SITE 17: note = Lysine is chemically modified through conjugation of the epsilon-amino group of the Lysine
B12: Example 656 (peptide)
chain: B8 chain with S11X, K16X, Y25X, S39E, S41T
modifications: acyl linker with epsilon-Lys; synthetic construct; SITE 2: note = 2-Aminoisobutyric Acid; SITE 6: note = alpha-methyl-2-fluoro-L-phenylalanine; SITE 10: note = 3-(4-Pyridyl)-L-alanine; SITE 11: note = alpha-methyl-L-serine; SITE 13: note = alpha-methyl-leucine; SITE 16: note = L-ornithine; SITE 17: note = Lysine is chemically mo
B13: Example 652 (peptide)
chain: B8 chain with Q27T, S39E
modifications: synthetic construct; SITE 2: note = 2-Aminoisobutyric Acid; SITE 6: note = alpha-methyl-2-fluoro-L-phenylalanine; SITE 10: note = 3-(4-Pyridyl)-L-alanine; SITE 13: note = alpha-methyl-leucine; SITE 17: note = Lysine is chemically modified through conjugation of the epsilon-amino group of the Lysine

How the values were obtained:
Assay in all cases: cell-based or functional assay
[1] = biological target: human glucagon receptor (human) (UniProt P47871)
Chain of human glucagon receptor (human) (P47871 26-477): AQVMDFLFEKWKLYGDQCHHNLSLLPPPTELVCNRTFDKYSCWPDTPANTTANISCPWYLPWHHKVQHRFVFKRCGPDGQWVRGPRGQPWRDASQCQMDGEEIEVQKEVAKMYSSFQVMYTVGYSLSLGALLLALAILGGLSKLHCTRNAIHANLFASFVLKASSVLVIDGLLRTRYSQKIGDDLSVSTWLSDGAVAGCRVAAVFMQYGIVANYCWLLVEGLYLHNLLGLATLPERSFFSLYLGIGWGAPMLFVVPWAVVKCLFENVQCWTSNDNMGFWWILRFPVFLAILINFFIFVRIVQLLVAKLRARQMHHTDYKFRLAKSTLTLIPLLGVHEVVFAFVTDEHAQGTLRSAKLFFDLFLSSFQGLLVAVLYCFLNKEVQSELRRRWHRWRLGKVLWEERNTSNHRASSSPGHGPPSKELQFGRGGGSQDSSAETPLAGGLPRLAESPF

[2] = biological target: T1, human GIP receptor (human) (UniProt P48546)
T1 sequence (looked up): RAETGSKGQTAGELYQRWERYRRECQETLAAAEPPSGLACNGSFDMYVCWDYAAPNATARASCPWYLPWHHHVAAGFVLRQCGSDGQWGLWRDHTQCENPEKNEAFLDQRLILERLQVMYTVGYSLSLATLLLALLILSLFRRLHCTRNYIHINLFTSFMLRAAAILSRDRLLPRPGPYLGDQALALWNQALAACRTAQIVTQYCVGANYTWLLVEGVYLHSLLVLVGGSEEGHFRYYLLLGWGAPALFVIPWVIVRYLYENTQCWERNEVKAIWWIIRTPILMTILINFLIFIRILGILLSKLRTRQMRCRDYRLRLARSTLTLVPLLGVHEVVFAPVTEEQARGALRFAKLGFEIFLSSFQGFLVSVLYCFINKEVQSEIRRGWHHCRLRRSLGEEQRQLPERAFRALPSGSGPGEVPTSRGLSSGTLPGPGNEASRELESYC

[3] = biological target: hGLP-1R (Homo sapiens, UniProt P43220)
Chain of hGLP-1R (P43220 24-463): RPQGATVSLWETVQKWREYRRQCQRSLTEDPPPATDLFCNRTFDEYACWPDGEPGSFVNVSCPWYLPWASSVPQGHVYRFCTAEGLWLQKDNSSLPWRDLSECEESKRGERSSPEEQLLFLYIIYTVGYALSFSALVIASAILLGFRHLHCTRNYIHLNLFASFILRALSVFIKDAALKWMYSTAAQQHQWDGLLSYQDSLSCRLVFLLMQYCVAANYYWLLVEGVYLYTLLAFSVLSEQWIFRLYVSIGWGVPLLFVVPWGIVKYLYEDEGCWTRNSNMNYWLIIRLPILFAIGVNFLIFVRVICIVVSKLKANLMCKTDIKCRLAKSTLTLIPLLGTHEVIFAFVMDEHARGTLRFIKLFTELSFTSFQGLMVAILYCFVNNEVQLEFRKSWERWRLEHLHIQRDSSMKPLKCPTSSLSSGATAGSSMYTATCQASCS

Binder | cAMP Rel EC50 (1% HSA) [1] [nM] | cAMP Rel EC50 (1% HSA) [2] [nM] | cAMP Rel EC50 (1% HSA) [3] [nM] | further results
B1 | 226 | 10.2 | 79 | –
B2 | 173 | 1.41 | 27.3 | –
B3 | 160 | 4.62 | 50.9 | –
B4 | 561 | 4.69 | 84.5 | –
B5 | – | – | – | Relative cAMP EC50 [1]: 3.57 nM; cAMP Rel EC50, nM (in the presence of 1% HSA) [1]: 1310 nM; Relative cAMP EC50 [2]: 0.122 nM; cAMP Rel EC50, nM (in the presence of 1% HSA) [2]: 55.2 nM; Relative cAMP EC50 [3]: 2.05 nM; cAMP Rel EC50, nM (in the presence of 1% HSA) [3]: 704 nM
B6 | – | – | – | Relative cAMP EC50 [1]: 4.1 nM; cAMP Rel EC50, nM (in the presence of 1% HSA) [1]: 709 nM; Relative cAMP EC50 [2]: 0.255 nM; cAMP Rel EC50, nM (in the presence of 1% HSA) [2]: 40.4 nM; Relative cAMP EC50 [3]: 4.78 nM; cAMP Rel EC50, nM (in the presence of 1% HSA) [3]: 348 nM
B7 | 735 | 5.75 | 81.5 | –
B8 | – | – | – | Relative cAMP EC50 [1]: 8 nM; cAMP Rel EC50 (in the presence of 1% HSA) [1]: 750 nM; Relative cAMP EC50 [2]: 0.0231 nM; cAMP Rel EC50 (in the presence of 1% HSA) [2]: 2.04 nM; Relative cAMP EC50 [3]: 0.374 nM; cAMP Rel EC50 (in the presence of 1% HSA) [3]: 27.9 nM
B9 | 542 | 1.38 | 25 | –
B10 | 639 | 6.3 | 53.9 | –
B11 | 574 | 3.1 | 31.4 | –
B12 | 662 | 7.13 | 119 | –
B13 | 764 | 1.92 | 26.8 | –
